Data as given in article PMC7607744 (2020).
No end group written: not given here.

Molecular target: T1, CD138pep (also: FITC-labeled, site not given here)
T1 chain: RKRLQVQLSIRT-NH2
Assay: flow cytometry binding to H929 cells

B1: CD138 (Syndecan-1) (protein)
chain: QIVATNLPPEDQDGSGDDSDNFSGSGAGALQDITLSQQTPSTWKDTQLLTAIPTSPEPTGLEATAASTSTLPAGEGPKEGEAVVLPEVEPGLTAREQEATPRPRETTQLPTTHLASTTTATTAQEPATSHPHRDMQPGHHETSTPAGPSQADLHTPHTEDGGPSATERAAEDGASSQLPAAEGSGEQDFTFETSGENTAVVAVEPDRRNQSPVDQGATGASQGLLDRKEVLG
  Kd: 3.1 µM
